From FireProtDB (doi:10.1021/bi00066a003) come the findings set out here.

The conditions of the series: Geobacillus stearothermophilus, pH 7.5, 25 °C, Fluorescence, TEA 50 mM, reversible: yes, whole UniProt chain shown.

B1: Phosphoglycerate kinase wild type, P18912 (protein)
chain: MNKKTIRDVDVRGKRVFCRVDFNVPMEQGAITDDTRIRAALPTIRYLIEHGAKVILASHLGRPKGKVVEELRLDAVAKRLGELLERPVAKTNEAVGDEVKAAVDRLNEGDVLLLENVRFYPGEEKNDPELAKAFAELADLYVNDAFGAAHRAHASTEGIAHYLPAVAGFLMEKELEVLGKALSNPDRPFTAIIGGAKVKDKIGVIDNLLEKVDNLIIGGGLAYTFVKALGHDVGKSLLEEDKIELAKSFMEKAKEKGVRFYMPVDVVVADRFANDANTKVVPIDAIPADWSALDIGPKTRELYRDVIRESKLVVWNGPMGVFEMDAFAHGTKAIAEALAEALDTYSVIGGGDSAAAVEKFGLADKMDHISTGGGASLEFMEGKQLPGVVALEDK
Regarding B1, the unfolding free energy turned out to be 4.35 kcal/mol (GdnHCl) and 4.21 kcal/mol (Urea).
